From the supplement of paper PMC11246515
± gives the standard deviation of the averaged measurements.

Experiment: total protein half-life in vivo (active degradation + dilution); higher = more stable protein
[1] = E. coli NCM3722 delta-clpP delta-lon delta-hslV, growth: N-lim chemostat, doubling time 6 h
[2] = E. coli NCM3722 delta-clpP, growth: N-lim chemostat, doubling time 6 h
[3] = E. coli NCM3722 delta-hslV, growth: N-lim chemostat, doubling time 6 h
[4] = E. coli NCM3722 delta-lon, growth: N-lim chemostat, doubling time 6 h
[5] = E. coli NCM3722 delta-smpB, growth: N-lim chemostat, doubling time 6 h
[6] = wild type E. coli NCM3722, growth: C-lim chemostat, doubling time 3 h
[7] = wild type E. coli NCM3722, growth: C-lim chemostat, doubling time 6 h
[8] = wild type E. coli NCM3722, growth: C-lim chemostat, doubling time 12 h
[9] = wild type E. coli NCM3722, growth: N-lim chemostat, doubling time 6 h
[10] = wild type E. coli NCM3722, growth: N-lim chemostat, doubling time 12 h
[11] = wild type E. coli NCM3722, growth: P-lim chemostat, doubling time 6 h
[12] = wild type E. coli NCM3722, growth: P-lim chemostat, doubling time 12 h

## MDLLIVLTYVALAWAVFKIFRIPVNQWTLATAALGGVFLVSGLILLMNYNHPYTFTAQKAVIAIPITPQVTGIVTEVTDKNNQLIQKGEVLFKLDPVRYQARVDRLQADLMTATHNIKTLRAQLTEAQANTTQVSAERDRLFKNYQRYLKGSQAAVNPFSERDIDDARQNFLAQDALVKGSVAEQAQIQSQLDSMVNGEQSQIVSLRAQLTEAKYNLEQTVIRAPSNGYVTQVLIRPGTYAAALPLRPVMVFIPEQKRQIVAQFRQNSLLRLKPGDDAEVVFNALPGQVFHGKLTSILPVVPGGSYQAQGVLQSLTVVPGTDGVLGTIELDPNDDIDALPDGIYAQVAVYSDHFSHVSVMRKVLLRMTSWMHYLYLDH [P0AFV0]
[1]
  total protein half-life in vivo: 3.52 h

## MYEALLVVFLIVAIGLVGLIMLQQGKGADMGASFGAGASATLFGSSGSGNFMTRMTALLATLFFIISLVLGNINSNKTNKGSEWENLSAPAKTEQTQPAAPAKPTSDIPN [P0AG99]
[1]
  total protein half-life in vivo: 3.64 ± 0.31 h
[2]
  total protein half-life in vivo: 3.46 ± 0.55 h
[3]
  total protein half-life in vivo: 3.996 ± 0.032 h
[4]
  total protein half-life in vivo: 4.58 ± 0.069 h
[5]
  total protein half-life in vivo: 3.78 ± 0.13 h
[6]
  total protein half-life in vivo: 2.33 ± 0.097 h
[7]
  total protein half-life in vivo: 4.91 ± 1.3 h
[8]
  total protein half-life in vivo: 6.22 ± 0.14 h
[9]
  total protein half-life in vivo: 3.81 ± 0.04 h
[10]
  total protein half-life in vivo: 4.95 h
[11]
  total protein half-life in vivo: 3.41 ± 0.17 h
[12]
  total protein half-life in vivo: 6.12 ± 0.75 h

## MTIVRIDAEARWSDVVIHNNTLYYTGVPENLDADAFEQTANTLAQIDAVLEKQGSNKSSILDATIFLADKNDFAAMNKAWDAWVVAGHAPVRCTVQAGLMNPKYKVEIKIVAAV [P0AEB7]
[1]
  total protein half-life in vivo: 5.7 ± 0.14 h
[2]
  total protein half-life in vivo: 5.4 ± 0.17 h
[3]
  total protein half-life in vivo: 4.95 ± 0.36 h
[4]
  total protein half-life in vivo: 5.51 ± 0.45 h
[5]
  total protein half-life in vivo: 5.45 ± 0.95 h
[6]
  total protein half-life in vivo: 3.02 ± 0.18 h
[7]
  total protein half-life in vivo: 7.21 ± 0.84 h
[8]
  total protein half-life in vivo: 13.5 ± 0.29 h
[9]
  total protein half-life in vivo: 6.27 ± 1.3 h
[10]
  total protein half-life in vivo: 11.2 ± 0.66 h
[11]
  total protein half-life in vivo: 6.16 ± 0.16 h
[12]
  total protein half-life in vivo: 12 ± 2.1 h

## MQYHRIPHSSLEVSTLGLGTMTFGEQNSEADAHAQLDYAVAQGINLIDVAEMYPVPPRPETQGLTETYVGNWLAKHGSREKLIIASKVSGPSRNNDKGIRPDQALDRKNIREALHDSLKRLQTDYLDLYQVHWPQRPTNCFGKLGYSWTDSAPAVSLLDTLDALAEYQRAGKIRYIGVSNETAFGVMRYLHLADKHDLPRIVTIQNPYSLLNRSFEVGLAEVSQYEGVELLAYSCLGFGTLTGKYLNGAKPAGARNTLFSRFTRYSGEQTQKAVAAYVDIARRHGLDPAQMALAFVRRQPFVASTLLGATTMDQLKTNIESLHLELSEDVLAEIEAVHQVYTYPAP [P0A9T4]
[1]
  total protein half-life in vivo: 5.76 ± 0.33 h
[2]
  total protein half-life in vivo: 5.29 ± 0.14 h
[3]
  total protein half-life in vivo: 5.5 ± 0.14 h
[4]
  total protein half-life in vivo: 4.99 ± 0.068 h
[5]
  total protein half-life in vivo: 4.6 ± 0.38 h
[6]
  total protein half-life in vivo: 3.41 ± 0.077 h
[7]
  total protein half-life in vivo: 5.9 ± 0.19 h
[8]
  total protein half-life in vivo: 10.4 ± 0.85 h
[9]
  total protein half-life in vivo: 4.88 ± 0.55 h
[10]
  total protein half-life in vivo: 8.51 ± 0.57 h
[11]
  total protein half-life in vivo: 6.32 ± 0.44 h
[12]
  total protein half-life in vivo: 12.8 ± 0.13 h

## MKNTELEQLINEKLNSAAISDYAPNGLQVEGKETVQKIVTGVTASQALLDEAVRLGADAVIVHHGYFWKGESPVIRGMKRNRLKTLLANDINLYGWHLPLDAHPELGNNAQLAALLGITVMGEIEPLVPWGELTMPVPGLELASWIEARLGRKPLWCGDTGPEVVQRVAWCTGGGQSFIDSAARFGVDAFITGEVSEQTIHSAREQGLHFYAAGHHATERGGIRALSEWLNENTDLDVTFIDIPNPA [P0AFP6]
[1]
  total protein half-life in vivo: 4.31 ± 0.15 h
[2]
  total protein half-life in vivo: 3.736 ± 0.0077 h
[3]
  total protein half-life in vivo: 3.9 ± 0.38 h
[4]
  total protein half-life in vivo: 4.42 ± 0.65 h
[5]
  total protein half-life in vivo: 3.7 ± 0.28 h
[6]
  total protein half-life in vivo: 2.86 ± 0.27 h
[7]
  total protein half-life in vivo: 6.13 ± 0.52 h
[8]
  total protein half-life in vivo: 10.3 ± 0.29 h
[9]
  total protein half-life in vivo: 3.66 ± 0.23 h
[10]
  total protein half-life in vivo: 5.74 ± 0.75 h
[11]
  total protein half-life in vivo: 5.26 ± 0.41 h
[12]
  total protein half-life in vivo: 11.2 ± 1.2 h

## MKSGRFIGVMSGTSLDGVDVVLATIDEHRVAQLASLSWPIPVSLKQAVLDICQGQQLTLSQFGQLDTQLGQLFADAVNALLKEQNLQARDIVAIGCHGQTVWHEPTGVAPHTLQIGDNNQIVARTGITVVGDFRRRDIALGGQGAPLVPAFHHALLAHPTERRMVLNIGGIANLSLLIPGQPVGGYDTGPGNMLMDAWIWRQAGKPYDKDAEWARAGKVILPLLQNMLSDPYFSQPAPKSTGREYFNYGWLERHLRHFPGVDPRDVQATLAELTAVTISEQVLLSGGCERLMVCGGGSRNPLLMARLAALLPGTEVTTTDAVGISGDDMEALAFAWLAWRTLAGLPGNLPSVTGASQETVLGAIFPANP
[1]
  total protein half-life in vivo: 4.58 ± 0.37 h
[2]
  total protein half-life in vivo: 4.32 ± 0.2 h
[3]
  total protein half-life in vivo: 3.98 ± 0.065 h
[4]
  total protein half-life in vivo: 5.78 ± 1.9 h
[5]
  total protein half-life in vivo: 3.88 ± 0.11 h
[6]
  total protein half-life in vivo: 3.34 ± 0.54 h
[7]
  total protein half-life in vivo: 5.7 ± 0.078 h
[8]
  total protein half-life in vivo: 9.74 ± 0.51 h
[9]
  total protein half-life in vivo: 4.03 ± 0.26 h
[10]
  total protein half-life in vivo: 7.18 ± 0.17 h
[11]
  total protein half-life in vivo: 5.87 ± 0.47 h
[12]
  total protein half-life in vivo: 12.9 ± 0.95 h

## MSGFYHKHFLKLLDFTPAELNSLLQLAAKLKADKKSGKEEAKLTGKNIALIFEKDSTRTRCSFEVAAYDQGARVTYLGPSGSQIGHKESIKDTARVLGRMYDGIQYRGYGQEIVETLAEYASVPVWNGLTNEFHPTQLLADLLTMQEHLPGKAFNEMTLVYAGDARNNMGNSMLEAAALTGLDLRLVAPQACWPEAALVTECRALAQQNGGNITLTEDVAKGVEGADFIYTDVWVSMGEAKEKWAERIALLREYQVNSKMMQLTGNPEVKFLHCLPAFHDDQTTLGKKMAEEFGLHGGMEVTDEVFESAASIVFDQAENRMHTIKAVMVATLSK
[1]
  total protein half-life in vivo: 3.57 ± 0.61 h
[2]
  total protein half-life in vivo: 2.14 ± 0.064 h
[3]
  total protein half-life in vivo: 2.09 ± 0.27 h
[4]
  total protein half-life in vivo: 2.62 ± 0.044 h
[5]
  total protein half-life in vivo: 2.52 ± 0.042 h
[6]
  total protein half-life in vivo: 2.9 ± 0.032 h
[7]
  total protein half-life in vivo: 4.71 ± 0.28 h
[8]
  total protein half-life in vivo: 7.42 ± 1.9 h
[9]
  total protein half-life in vivo: 2.52 ± 0.23 h
[10]
  total protein half-life in vivo: 3.48 ± 0.63 h
[11]
  total protein half-life in vivo: 5.11 ± 0.34 h
[12]
  total protein half-life in vivo: 8.84 ± 0.35 h
